B1: Synaptotagmin-1 (Rattus norvegicus (Rat)), P21707 (parent)
chain: MVSASHPEALAAPVTTVATLVPHNATEPASPGEGKEDAFSKLKQKFMNELHKIPLPPWALIAIAIVAVLLVVTCCFCVCKKCLFKKKNKKKGKEKGGKNAINMKDVKDLGKTMKDQALKDDDAETGLTDGEEKEEPKEEEKLGKLQYSLDYDFQNNQLLVGIIQAAELPALDMGGTSDPYVKVFLLPDKKKKFETKVHRKTLNPVFNEQFTFKVPYSELGGKTLVMAVYDFDRFSKHDIIGEFKVPMNTVDFGHVTEEWRDLQSAEKEEQEKLGDICFSLRYVPTAGKLTVVILEAKNLKKMDVGGLSDPYVKIHLMQNGKRLKKKKTTIKKNTLNPYYNESFSFEVPFEQIQKVQVVVTVLDYDKIGKNDAIGKVFVGYNSTGAELRHWSDMLANPRRPIAQWHTLQVEEEVDAMLAVKK

Variants of: B1
Conditions: with stx1a_mouse Stx1a

Row | Variant | effect of a mutation on the interaction
1 | D178A;D230A;D232A;D309A;D363A;D365A | decreasing interaction strength
